Changes are numbered by the printed parent chain.

Data on three molecules can be found in patent US6027877, “Use of immobilized mismatch binding protein for detection of mutations and polymorphisms, purification of amplified DNA samples and allele identification” (Gene Check, Inc.).

In data set [1] the target is T1, MutS (Escherichia coli, UniProt P23909 P23909:1-853).
T1 sequence: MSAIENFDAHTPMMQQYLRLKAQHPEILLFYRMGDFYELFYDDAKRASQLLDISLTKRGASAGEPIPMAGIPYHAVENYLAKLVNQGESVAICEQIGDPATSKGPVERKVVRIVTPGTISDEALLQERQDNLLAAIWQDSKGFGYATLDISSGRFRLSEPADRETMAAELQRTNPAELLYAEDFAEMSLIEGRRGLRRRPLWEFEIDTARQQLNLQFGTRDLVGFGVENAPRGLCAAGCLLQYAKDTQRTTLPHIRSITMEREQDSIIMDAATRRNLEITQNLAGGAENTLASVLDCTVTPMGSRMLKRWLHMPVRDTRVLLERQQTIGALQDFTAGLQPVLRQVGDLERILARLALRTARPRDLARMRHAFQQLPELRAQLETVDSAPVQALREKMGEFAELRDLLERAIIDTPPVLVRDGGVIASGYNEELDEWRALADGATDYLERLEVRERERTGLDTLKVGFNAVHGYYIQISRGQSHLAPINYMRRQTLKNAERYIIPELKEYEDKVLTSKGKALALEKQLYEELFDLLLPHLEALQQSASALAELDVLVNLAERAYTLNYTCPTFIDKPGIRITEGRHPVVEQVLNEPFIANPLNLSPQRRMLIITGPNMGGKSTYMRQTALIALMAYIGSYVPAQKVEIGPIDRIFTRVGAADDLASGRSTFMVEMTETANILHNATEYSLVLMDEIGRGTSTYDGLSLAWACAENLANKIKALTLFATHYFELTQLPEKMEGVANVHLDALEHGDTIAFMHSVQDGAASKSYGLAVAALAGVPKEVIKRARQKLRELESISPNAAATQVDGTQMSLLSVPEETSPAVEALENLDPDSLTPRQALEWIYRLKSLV
Nature of the data set: no detectable binding even with 200 ng; same buffer, 5 mM MgCl2, room temperature. The conditions noted are these: tags: adsorbed on nitrocellulose (0.45 um, Schleicher & Schuell); perfect duplex. On the procedure:
(§1) Purified MBP, E. coli MutS, at a concentration of 0.5 μg/10 μl reaction buffer was spotted on the nitrocellulose paper in each well. The wells were incubated at room temperature, and the remaining liquid was pulled through with vacuum. Each well was washed twice with 100 μl reaction buffer by adding the solution to the well and then pouring it out. After the second wash, the remaining solution was pulled through the vacuum.
(§2) Biotinylated oligonucleotides, in 20 μl reaction buffer containing 1% BSA, were added to each well. After 30 minutes at room temperature, remaining liquid was poured out. Each well was washed with 5×100 μl reaction buffer by adding the solution to the well and then pouring it out. After the fifth wash, the remaining solution was pulled through by vacuum.
(§3) The presence of biotin was detected by its binding of Streptavidin. A 100 μl volume of Streptavidin-conjugated HRP (Pierce Chemicals) at a concentration of […] in reaction buffer +1% BSA was added to each well. After 2 hours at room temperature, the solution was poured out and each well washed with 5×100 μl reaction buffer by adding the solution and then pouring it out. After the fifth wash, the remaining solution was pulled through with vacuum.

Data set [2] deals with T1, MutS. Nature of the data set: competition; competition clearly visible with 50 ng against 5 ng biotinylated mismatch 30-mer. As to conditions: tags: adsorbed on nitrocellulose (0.45 um, Schleicher & Schuell); single G:T mismatch. As for the experimental part: as §1, §2
In competition studies, the DNA binding was as described above, except that a constant amount of biotinylated mismatch-containing oligonucleotide (5 ng) was mixed with varying amounts of unlabeled DNA, with or without a mismatch, and added to the wells.

Data set [3] has as its target T1, MutS. As to the kind of experiment: dot blot with immobilized MutS, streptavidin-HRP ECL; as little as 0.2 ng detected; 20 mM Tris pH 7.6, 5 mM MgCl2, 1% BSA, room temperature. As to conditions: tags: adsorbed on nitrocellulose (0.45 um, Schleicher & Schuell); single G:T mismatch. As for the experimental part: as §1, §2, §3

B1: beta-globin 30-mer fully matched duplex (dsDNA)
DNA 1: GCACCTGACTCCTGGGGAGAAGTCTGCCGT
DNA 2: ACGGCAGACTTCTCCCCAGGAGTCAGGTGC
For B1, the binding result in data set [1] is given as “no binding”.

B2: unlabeled beta-globin 30-mer G:T mismatch duplex (dsDNA)
DNA 1: B1 DNA 1
DNA 2: B1 DNA 2 with C16T
For the molecule B2, the binding result in data set [2] was “binds”.

B3: beta-globin 30-mer G:T mismatch duplex (dsDNA)
DNA 1: B1 DNA 1
DNA 2: B1 DNA 2 with C16T
For the molecule B3, in data set [3], the binding result is recorded as “binds”.
